Values of other authors as cited in paper PMC3440555 (Bioconjugate chemistry, 2012).

Columns and labels:
[1] = biological target: melanocortin-1 (MC1) receptor (Mus musculus, UniProt Q01727); conditions: read-out: MC1 receptor binding affinity (IC50 value); B16/F1 melanoma cells
[2] = test system: B16/F1 melanoma-bearing mouse; conditions: flank primary B16/F1 melanoma and B16/F10 pulmonary melanoma metastases; 2 h post-injection
[3] = test system: B16/F1 melanoma-bearing C57 mice

Sequence of melanocortin-1 (MC1) receptor (Q01727 whole entry): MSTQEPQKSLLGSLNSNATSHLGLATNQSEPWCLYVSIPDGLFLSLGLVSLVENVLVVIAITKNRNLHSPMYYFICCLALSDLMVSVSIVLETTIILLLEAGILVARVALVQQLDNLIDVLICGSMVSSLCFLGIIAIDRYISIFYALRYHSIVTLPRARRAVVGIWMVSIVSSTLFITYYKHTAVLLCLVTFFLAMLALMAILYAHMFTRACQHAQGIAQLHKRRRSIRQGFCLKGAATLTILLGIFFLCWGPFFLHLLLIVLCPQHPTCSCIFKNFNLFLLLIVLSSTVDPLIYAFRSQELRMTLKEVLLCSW

| IC50 [1] | Substance | Visualization of melanoma by SPECT/CT [2] | Decrease of renal uptake by L-lysine co-injection ([3]; 2 h post-injection, melanoma uptake not affected) | Renal uptake ([3]; mouse, in vivo, 2 h) | Tumor uptake ([3]; mouse, in vivo, 2 h) |
| --- | --- | --- | --- | --- | --- |
| 2.1 nM | DOTA-GGNle-CycMSHhex: non-radiolabeled DOTA-conjugated lactam bridge-cyclized alpha-MSH peptide, DOTA-Gly-Gly-Nle-c[Asp-His-DPhe-Arg-Trp-Lys]-CONH2 | – | – | – | – |
| – | ^67Ga-DOTA-Gly-Glu-c[Lys-Nle-Glu-His-DPhe-Arg-Trp-Gly-Arg-Pro-Val-Asp] [^67Ga-DOTA-GlyGlu-CycMSH] | clearly visualized | 69.8% | 27.55 ± 7.87 %ID/g | 12.93 ± 1.63 %ID/g |
